Our source for the 抑制率 values is patent CN111333719A.

Experiment [1] deals with 抗HPV16E7蛋白单抗69A6. Kind of experiment: indirect competition ELISA, peptide at 1μmol/L competes with coated HPV16E7 whole protein for 69A6. For orientation: In an ELISA, binding on a coated surface is turned into a signal by an enzyme label.
Experiment [2] addresses 抗HPV16E7蛋白单抗69A6. Kind of experiment: indirect competition ELISA, peptide at 10μmol/L competes with coated HPV16E7 whole protein for 69A6.

B1: 重叠肽HPV16E7 73-90 (peptide)
peptide: HVDIRTLEDLLMGTLGIV
In the case of B1, the 抑制率 in experiment [1] stood at 56.2%; in experiment [2] it was 93.5%.

B2: 重叠肽HPV16E7 49-66 (peptide)
peptide: RAHYNIVTFCCKCDSTLR
As for B2, the 抑制率 was determined as 15.6% in experiment [1] and 16.3% in experiment [2].

B3: 重叠肽HPV16E7 85-98 (peptide)
peptide: GTLGIVCPICSQKP
For the molecule B3, the 抑制率 was 48.6% in experiment [1] and 92% in experiment [2].

B4: 重叠肽HPV16E7 67-84 (peptide)
peptide: LCVQSTHVDIRTLEDLLM
B4: the 抑制率 in experiment [1] turned out to be 47.3%; in experiment [2], 91.6%.
